Laboratory results taken from patent publication US6168954A, “Soybean glutathione-S-transferase enzymes” (E. I. du Pont de Nemours & Company, priority 1999, dated 2001).

B1: se1.27b04: soybean type I GST encoded by cDNA insert in clone se1.27b04 (protein)
chain: MICLHEKEVDFELVPVNVFAAEHKQPPFLSKNPFGFIPVLEDGDLTLFESRAITAYVAEKFKETEPDLIRHKDAKEAALVKVWTEVESHYYEPAVSPIIYEYFVAPFQGKEPDKSVIDTNVEKLKTVLDVYEAKLSSTKYLAGDFYSLADLSHVSETHYLMQTPCASMINELPHVKAWWEDISSRPAFNKVVGGMSFGQNH
B2: ssm.pk0026.g11: soybean type II GST encoded by cDNA insert in clone ssm.pk0026.g11 (protein)
chain: MASASVGKELTLYSYWRSSCSHRVRIALNLKGLKYEYKPVNLLKGEQSRPEFLQLNPVGCVPVLVDDHVVLYDSFAIIMYLEDKYPHNPLLPHDIYKRAINFQAASVVSSTIQPLHNLSLLNYIGEKVGPDEKLPWAQSIIRRGFKALEKLLKDHTGRYATGDEVFLADIFLAPQLHAAFKRFNIHMNEFPILARLHETYNEIPAFQEALPENQPDAVH
B3: se1.pk0017.f5: soybean type IV GST encoded by cDNA insert in clone se1.pk0017.f5 (protein)
chain: MASLGVRPVLPPPLTSISDPPPLFDGTTRLYISYSCPYAQRVWIARNYKGLQDKINLVPINLQDRPAWYKEKVYPENKVPSLEHNGKVLGESLDLIKYVDANFEGTPLFPSDPAKKEFGEQLISHVDTFSKDLFVSLKGDAVQQASPAFEYLENALGKFDDGPFLLGQFSLVDIAYIPFVERFQIVFAEVFKHDITEGRPKLATWFEELNKLNAYTETRVDPQEIVDLFKKRFLPQQ

Assay: GST conjugation activity with ethacrynic acid (HPLC)
Format: biochemical
Conditions: 0.4 mM electrophilic substrate, 4 mM glutathione, 0.1 M MOPS pH 7.0, corrected for uncatalyzed reaction
Excerpt: (§1) The GST enzymes, expressed and purified as described in Example 5 were screened for their ability to metabolize a variety of substrates. Substrates tested included the three herbicide electrophilic substrates chlorimuron ethyl, alachlor, and Atrazine, and four model electrophilic substrates, 1-chloro-2, 4-dinitro-benzene (CDNB), ethacrynic acid, t-stilbene oxide, and 1,2-epoxy-3-(p-nitro-phenoxy) propane. The enzymes were purified as described in Example 5 and used in the following assay.
(§2) For each enzyme, the conjugation reaction with each electrophilic substrate was performed by incubating 0.3 to 30 μg enzyme in 0.1 M MOPS (pH 7.0) containing 0.4 mM of the electrophilic substrate. The reaction was inititated by the addition of glutathione to a final concentration of 4 mM. After 5 to 30 min, the reaction was terminated by the addition of 45 μL acetonitrile, microfuged for 10 min to remove precipitated protein, and then the supematent was removed and added to 65 μL of water. This sample was chromatographed on a Zorbax C8 reverse phase HPLC column (3 μm particle size, 6.2 mm×8 cm) using a combination of linear gradients (flow=1.5 mL/min) of 1% H3 PO4 in water (solvent A) and 1% H3 PO4 in acetonitile. The gradient started with 5% solvent B, progressing from 5% to 75% solvent B between 1 and 10 min, and from 75% to 95% solvent B between 10 and 12 min. Control reactions without enzyme were performed to correct for uncatalyzed reaction. Quantitation of metabolites were based on an assumption that the extinction coefficient of the conjugate was identical to that of the electrophilic substrate.
(§3) Activities are related to the activity of a known and previously isolated and purified GST enzyme, GH2/4 (also called GST 26) (Czarnecka et al., Plant Molecular Biology 3:45-58 (1984); Ulmasoz et al., Plant Physiol 108:919-927 (1995)).

Row | Molecule | Activity of soybean GST enzyme, Ethacrynic Acid [nmol/min/mg]
1 | B1 | 11
2 | B2 | 5
3 | B3 | 3

Assay: GST conjugation activity with t-stilbene oxide (HPLC)
Format: biochemical
Conditions: 0.4 mM electrophilic substrate, 4 mM glutathione, 0.1 M MOPS pH 7.0, corrected for uncatalyzed reaction
Excerpt: as §1, §2, §3

Row | Molecule | Activity of soybean GST enzyme, T-Stilbene Oxide [nmol/min/mg]
4 | B1 | 0.00
5 | B2 | 0.04
6 | B3 | 0.15

Assay: GST conjugation activity with CDNB (HPLC)
Format: biochemical
Conditions: 0.4 mM electrophilic substrate, 4 mM glutathione, 0.1 M MOPS pH 7.0, corrected for uncatalyzed reaction
Excerpt: as §1, §2, §3

Row | Molecule | Activity of soybean GST enzyme, CDNB [nmol/min/mg]
7 | B1 | 15
8 | B2 | 15
9 | B3 | 30

Assay: GST conjugation activity with 1,2-epoxy-3-(p-nitrophenoxy)propane (HPLC)
Format: biochemical
Conditions: 0.4 mM electrophilic substrate, 4 mM glutathione, 0.1 M MOPS pH 7.0, corrected for uncatalyzed reaction
Excerpt: as §1, §2, §3

Row | Molecule | Activity of soybean GST enzyme, 1,2-epoxy-3-(p-nitrophenoxy)propane [nmol/min/mg]
10 | B1 | 0
11 | B2 | 2
12 | B3 | 0

Assay: GST conjugation activity with alachlor (HPLC)
Format: biochemical
Conditions: 0.4 mM electrophilic substrate, 4 mM glutathione, 0.1 M MOPS pH 7.0, corrected for uncatalyzed reaction
Excerpt: as §1, §2, §3

Row | Molecule | Activity of soybean GST enzyme, Alachlor [nmol/min/mg]
13 | B1 | 0
14 | B2 | 0
15 | B3 | 0

Assay: GST conjugation activity with Atrazine (HPLC)
Format: biochemical
Conditions: 0.4 mM electrophilic substrate, 4 mM glutathione, 0.1 M MOPS pH 7.0, corrected for uncatalyzed reaction
Excerpt: as §1, §2, §3

Row | Molecule | Activity of soybean GST enzyme, Atrazine [nmol/min/mg]
16 | B1 | 0.00
17 | B2 | 0.00
18 | B3 | 0.00

Assay: GST conjugation activity with chlorimuron ethyl (HPLC)
Format: biochemical
Conditions: 0.4 mM electrophilic substrate, 4 mM glutathione, 0.1 M MOPS pH 7.0, corrected for uncatalyzed reaction
Excerpt: as §1, §2, §3

Row | Molecule | Activity of soybean GST enzyme, Chlorimuron Ethyl [nmol/min/mg]
19 | B1 | 0.1
20 | B2 | 0.0
21 | B3 | 0.0
